Test results reported in publication PMC4298015.

Columns and labels:
GST-Gli1ZF-K350A = GST-Gli1ZF-K350A (UniProt P08151 242-424, K350A); assay: EMSA
GST-Gli1ZF-WT = GST-Gli1ZF-WT (UniProt P08151 242-424); assay: EMSA
GST-Gli1ZF-WT, sequence (P08151 242-424): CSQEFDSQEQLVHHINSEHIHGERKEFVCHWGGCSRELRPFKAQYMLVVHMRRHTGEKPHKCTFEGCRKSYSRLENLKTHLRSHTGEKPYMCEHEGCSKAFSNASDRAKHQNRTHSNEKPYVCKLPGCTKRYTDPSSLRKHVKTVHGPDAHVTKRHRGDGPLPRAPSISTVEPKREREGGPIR

GST-Gli1ZF-K350A, sequence (P08151 242-424 K350A): as the sequence (P08151 242-424) above, with K109A counted along it

B1: GliBS (dsDNA)
DNA 1: TTGCCTACCTGGGTGGTCTCTCCACTT
DNA 2: AAGTGGAGAGACCACCCAGGTAGGCAA
binding result (GST-Gli1ZF-K350A): no binding | binding result (GST-Gli1ZF-WT): binds
